Assay results taken from patent publication US8536121B2, “Methods and reagents for the diagnosis, prevention and treatment of insulin resistance using beta-arrestin2 and its up-regulators” (Shanghai Institutes for Biological Sciences, CAS, priority 2008, dated 2013).

B1: βarrestin2 186-409: truncated mutant of βarrestin2 that interacts with IR but not Akt or Src; overexpressed in Hep3B or delivered by adenovirus (protein)
chain: ETTRHFLMSDRSLHLEASLDKELYYHGEPLNVNVHVTNNSTKTVKKIKVSVRQYADICLFSTAQYKCPVAQLEQDDQVSPSSTFCKVYTITPLLSDNREKRGLALDGKLKHEDTNLASSTIVKEGANKEVLGILVSYRVKVKLVVSRGGDVSVELPFVLMHPKPHDHIPLPRPQSAAPETDVPVDTNLIEFDTNYATDDDIVFEDFARLRLKGMKDDDYDDQLC
modifications: left off: small tags and cut ends
notes: overexpressed in Hep3B or delivered by adenovirus
B2: βarrestin2 1-185: truncated form of βarrestin2 containing amino acids 1-185, dominant negative mutant; overexpressed in Hep3B or delivered by adenovirus (protein)
chain: MGEKPGTRVFKKSSPNCKLTVYLGKRDFVDHLDKVDPVDGVVLVDPDYLKDRKVFVTLTCAFRYGREDLDVLGLSFRKDLFIATYQAFPPVPNPPRPPTRLQDRLLRKLGQHAHPFFFTIPQNLPCSVTLQPGPEDTGKACGVDFEIRAFCAKSLEEKSHKRNSVRLVIRKVQFAPEKPGPQPSA
modifications: left off: small tags and cut ends
notes: as for B1

What was measured:
[1] = test system: Akt; assay: Insulin-stimulated Akt phosphorylation in Hep3B hepatocytes treated with inhibitors (immunoblot); assay type: cell-based, human; details: 10 μM PP2 or 100 nM Wortmannin for 30 min, then 100 nM insulin
Experimental: (§1) FIG. 4A, Activation of PI3K by insulin in livers of βarr2-ko mice (n=6), βarr2-tg mice (n=6) and their wild type littermates (n=6). Mice were injected with either saline or insulin (1 U·kg^−1) for 10 min. PI3K were immuno-purified from liver extracts and PI3K activity were measured by ELISA. Data are presented as mean ±s.e.m. *P<0.05, **P<0.005, versus control. FIG. 4B, FIG. 4C, Activation of Akt and downstream targets by insulin in livers of βarr2-ko mice (n=6) (FIG. 4B), βarr2-tg mice (n=6) (FIG. 4C) and their wild type littermates (n=6). Liver protein extracts prepared as in A were used for immunoblot analysis of pAkt, pFoxol, and pGSK3. […] FIG. 4E, Src-dependent activation of Akt. Hep3B hepatocytes were treated with or without 10 μM Src inhibitor PP2 or 100 nM PI3K inhibitor Wortmanin for 30 min, and then stimulated by 100 nM insulin. Phosphorylation levels of Akt at serine/threonine or tyrosine (n=6) were shown. […]
(§2) After mouse is sacrificed, mouse tissues are quickly excised and frozen in liquid nitrogen. Tissue lysate is prepared and protein concentration is determined by Bradford method. […] For immunoblotting, protein bands, emitting infrared fluorescence through excitation of IRDye800CW conjugated secondary antibody, are obtained by Odyssey infrared imaging system, followed by using Scion Image software (Li-Cor Bioscience, Lincoln, Nebr., USA) to perform quantitative analysis. […]

[2] = test system: Akt; assay: Akt phosphorylation in liver of mice injected with insulin (immunoblot); assay type: in vivo, mouse
Experimental: as §1, §2

[3] = test system: PI3K; assay: PI3K activity (ELISA) in liver of mice injected with insulin; assay type: in vivo, mouse; details: insulin 1 U·kg^−1 for 10 min; wild type, βarr2-ko and βarr2-tg mice
Experimental: as §1, with “shown. FIG. 4F, Tyrosine phosphorylation of Akt induced by insulin in livers of βarr2-ko mice (n=6), βarr2-tg mice (n=6) and their wild type littermates (n=6). Akt immuno-purified from protein extracts made in FIG. 4B and FIG. 4C was subjected to immunoblot using antibodies against phosphorylated tyrosine. All mice were 8-weeks old fed with a regular diet. Data are presented as mean ±s.e.m. *P<0.05, **P<0.005, versus control.” for “shown.”

[4] = test system: wild type littermates and βarr2-ko mice; assay: Insulin tolerance tests (ITTs); assay type: in vivo, mouse; details: intraperitoneal 1 U·kg^−1 insulin
Experimental: (§3) For GTTs, mice are injected intraperitoneal with glucose after starvation for 6 hours. Blood glucose is measure at indicated time points. Mice are injected intraperitoneally under fed conditions for ITTs. Blood are collected and determined the glycemia using a glucometer (Roche Accu-chek). Serum insulin levels are measured using rat/mouse ELISA kit.

[5] = test system: Akt/βarrestin2/Src complex; assay: Akt/βarrestin2/Src complex formation in liver of C57BL/6 mice injected with insulin (immunoprecipitation); assay type: in vivo, mouse; details: C57BL/6 mice livers, intraperitoneal insulin 1 U·kg^−1, time-dependent
Experimental: (§4) C57BL/6 mice (n=6) were injected with 1 U·kg^−1 insulin for the indicated times, and liver protein extracts were prepared for immunoprecipitation using anti-Akt antibodies. […] Liver protein extracts prepared as described in a were subjected to immunoprecipitation for IRβ. […] Liver protein extracts prepared from βarr2-ko (n=6), βarr2-tg (n=6), their wild type littermates (n=6) as described were subjected to immunoprecipitation for IRβ. Akt and Src associated with IRβ were detected on immunoblots. […] Hep3B hepatocytes overexpressing HA-βarrestin2 186-409 or βGal were subjected for immunoblot analysis of pAkt, pFoxol, and pGSK3. All mice were 8-weeks old fed with a regular diet.
as §2, with “method. For immunoprecipitation, add relevant antibodies to cell lysate, incubate at 4° C. overnight, add protein A or protein G agarose beads, incubate at 4° C. for 2 h.” for “method.”

[6] = target: T1, IRβ (Homo sapiens, UniProt P06213); assay: Co-immunoprecipitation of βarrestin2 truncation mutants with IRβ in Hep3B hepatocytes; assay type: binding; details: HA-tagged mutant
T1 construct: IR immunoprecipitated from Hep3B hepatocytes; endogenous in cells; host or cells: Hep3B
Experimental: as §4
as §2, with “method. For immunoprecipitation, add relevant antibodies to cell lysate, incubate at 4° C. overnight, add protein A or protein G agarose beads, incubate at 4° C. for 2 h.” for “method.”

[7] = test system: db/db diabetic mice; assay: Adenovirus injection into db/db diabetic mice (blood glucose, GTTs, ITTs, body weight, food intake, liver βarrestin2); assay type: in vivo, mouse; details: adenovirus encoding mutant, vs βGal
Experimental: (§5) βarr1-ko and βarr2-ko mice are provided by Dr. Robert J. Lefkowitz (Duke University Medical Center, Durham, N.C.). βarr1-tg and βarr2-tg mice are generated as described (Shi, Y., et al., “Critical regulation of CD4+ T cell survival and autoimmunity by beta-arrestin 1,” Nature Immunol., 8, 817-24 (2007)). All other mice are from Shanghai Laboratory Animal Center, Chinese Academy of Sciences. Animal experiments are performed in accordance with the National Institutes of Heath Guide for the Care and Use of Laboratory Animals. Mice are fed with a regular diet (Formulab 5008, Labdiet 5053) or high-fat diet (55% fat calories) (Harlan-Teklad 93075) and have free access to water and diet. Adenovirus (7×10^9 viral particle/100 μl saline) is injected into the tail vein of db/db mice and C57BL/6 to specifically target the liver. Body weight and food intake are measured as described in: Netea, M. G., et al., “Deficiency of interleukin-18 in mice leads to hyperphagia, obesity and insulin resistance,” Nature Medicine, 12, 650-6 (2006).
as §3, with “kit. […]” for “kit.”

[8] = test system: C57BL/6 mice; assay: Adenovirus encoding βarrestin2 mutants injected into C57BL/6 mice (blood glucose, GTTs, ITTs); assay type: in vivo, mouse; details: for insulin tolerance in ITTs: 1 U·kg^−1, 7 days after adenovirus injection; for glucose tolerance in GTTs: 1 g·kg^−1, 7 days after adenovirus injection; for blood glucose levels: adenovirus, all time points, vs control mice
Source text: C57BL/6 mice were 8 -weeks old fed on regular diet (RD). Data are presented as mean ±s.e.m. *P<0.05, **P<0.005, versus control.
as §5, §3
The CsCl purified adenovirus are used as a saline solution (7×10^9 virus particles per […]) and injected through tail vein.

[9] = test system: Akt; assay: Co-immunoprecipitation of βarrestin2 truncation mutants with Akt in Hep3B hepatocytes; assay type: binding, human; details: HA-tagged mutant
Source text: (§6) FIG. 5B, Interaction of Akt and Src in liver of wild type littermates but not βarr2-ko mice. Liver protein extracts from βarr2-ko mice (n=6) and their wild type littermates (n=6) were used for immunoprecipitation by anti-Akt or anti-Src antibodies. FIG. 5C, Enhanced interaction of Akt and Src in liver of βarr2-tg mice. Liver protein extracts from βarr2-tg mice (n=6) and their wild type littermates (n=6) were used for immunoprecipitation by anti-Akt or anti-Src antibodies. […] HA-βarrestin2 that co-immunoprecipitated from Hep3B hepatocytes overexpressing Akt or Src without or with HA-βarrestin2, HA-βarrestin2 1-185 was shown on immunoblots using anti-HA antibodies (n=3). […]
(§7) C57BL/6 mice (n=6) were injected with 1 U·kg^−1 insulin for the indicated times, and liver protein extracts were prepared for immunoprecipitation using anti-Akt antibodies. […] Akt and Src associated with IRβ were detected on immunoblots. […]
as §2

[10] = test system: Akt; assay: Insulin-stimulated pAkt, pFoxo1, pGSK3 in Hep3B hepatocytes overexpressing βarrestin2 mutants (immunoblot); assay type: cell-based, human; details: overexpressed in Hep3B hepatocytes, vs βGal
Source text: FIG. 5B, Interaction of Akt and Src in liver of wild type littermates but not βarr2-ko mice. Liver protein extracts from βarr2-ko mice (n=6) and their wild type littermates (n=6) were used for immunoprecipitation by anti-Akt or anti-Src antibodies. FIG. 5C, Enhanced interaction of Akt and Src in liver of βarr2-tg mice. Liver protein extracts from βarr2-tg mice (n=6) and their wild type littermates (n=6) were used for immunoprecipitation by anti-Akt or anti-Src antibodies. […] HA-βarrestin2 that co-immunoprecipitated from Hep3B hepatocytes overexpressing Akt or Src without or with HA-βarrestin2, HA-βarrestin2 1-185 was shown on immunoblots using anti-HA antibodies (n=3). FIG. 5F, Hep3B hepatocytes overexpressing HA-βarrestin2 1-185 or βGal were subjected to immunoprecipitation using anti-Akt antibodies. Akt, Src in the immunopurified complex were shown on immunoblots (n=3). […] Hep3B hepatocytes overexpressing HA-βarrestin2 1-185 or βGal were stimulated by insulin and then subjected to immunoblot analysis of pAkt, pFoxol, and pGSK3. All mice were 8-weeks old fed with a regular diet.
as §4
After mouse is sacrificed, mouse tissues are quickly excised and frozen in liquid nitrogen. Tissue lysate is prepared and protein concentration is determined by Bradford method. For immunoprecipitation, add relevant antibodies to cell lysate, incubate at 4° C. overnight, add protein A or protein G agarose beads, incubate at 4° C. for 2 h. Proteins that bind protein A or protein G agarose beads are washed in SDS sample buffer and treated at 50° C. for 20 min followed by SDS-PAGE separation and through immunoblotting method to determine relevant proteins. For immunoblotting, protein bands, emitting infrared fluorescence through excitation of IRDye800CW conjugated secondary antibody, are obtained by Odyssey infrared imaging system, followed by using Scion Image software (Li-Cor Bioscience, Lincoln, Nebr., USA) to perform quantitative analysis. […]

[11] = target: T2, Src (Homo sapiens, UniProt P12931); assay: Co-immunoprecipitation of βarrestin2 truncation mutants with Src in Hep3B hepatocytes; assay type: binding; details: HA-tagged mutant
T2 construct: Full length of Akt and Src are cloned into modified pcDNA3 vector in-frame with HA or Flag at the N-terminus; expressed in transfected cells; host or cells: Hep3B
Source text: as §6, §7, §2

[12] = test system: Akt/Src complex; assay: Akt/Src interaction in Hep3B hepatocytes overexpressing βarrestin2 mutant (anti-Akt immunoprecipitation); assay type: cell-based, human; details: overexpressed in Hep3B hepatocytes, vs βGal
Source text: as §6, with “(n=3). FIG. 5F, Hep3B hepatocytes overexpressing HA-βarrestin2 1-185 or βGal were subjected to immunoprecipitation using anti-Akt antibodies. Akt, Src in the immunopurified complex were shown on immunoblots (n=3).” for “(n=3).”
as §2

Molecule | insulin resistance [7] | insulin tolerance in ITTs [8] | glucose tolerance in GTTs [8] | blood glucose levels [8] | interaction with Akt [9] | insulin-stimulated phosphorylation (activation) of Akt [10] | interaction with Src [11] | further results
CC(C)(C)n1nc(-c2ccc(Cl)cc2)c2c(N)ncnc21 [PP2] |  |  |  |  |  |  |  | serine/threonine phosphorylation of Akt [1]: remarkably reduced; tyrosine phosphorylation of Akt [1]: remarkably reduced
insulin: insulin injected into mice or added to cells as stimulus |  |  |  |  |  |  |  | increase in tyrosine phosphorylation of Akt ([2]; liver of wild type mice, insulin stimulation): ~2 fold; increase in the phosphorylation of Akt at Thr308 or Ser473 in liver ([2]; wild type mice, insulin 1 U·kg^−1 for 10 min): ~3 fold; increase in PI3K activity in liver [3]: ~3 fold; blood glucose in ITTs [4]: time-dependent reduction; Akt/Src interactions [5]: marked increase; Akt/βarrestin2 association [5]: marked increase
B1 | aggravates | impair | impair | higher | not Akt or Src | suppresses | not Akt or Src | interaction with IRβ [6]: interacts with IRβ
B2 | aggravates | impair | impair | higher | not Akt | markedly reduced | interacts with Src | Akt/Src interactions [12]: inhibits; insulin-stimulated phosphorylation of Foxo1 [10]: markedly reduced; insulin-stimulated phosphorylation of GSK3 [10]: markedly reduced
